# Results from the supplement of paper PMC7877785.
# ± gives the uncertainty stated by the source.
# Experiment: self-splicing fitness, log relative to wild type (ln ratio); higher = more splicing; Tetrahymena group I intron in knt gene, E. coli kanamycin selection, DiMSum; sequences stand for … in CUCUCU…GGAGGGAAAAGUUAUCAGGCAUGCACCUGGUAGCUAGUCUUUAAACCAAUAGAUUGCAUCGGUUUAAAAGGCAAGACCGUCAAAUUGCGGGAAAGGGGUCAACAGCCGUUCAGUACCAAGUCUCAGGGGAAACUUUGAGAUGGCCUUGCAAAGGGUAUGGUAAUAAGCUGACGGACAUGGUCCUAACCACGCAGCCAAGUCCUAAGUCAACAGAUCUUCUGUUGAUAUGGAUGCAGUUCACAGACUAAAUGUCGGUCGGGGAAGAUGUAUUCUUCUCAUAAGAUAUAGUCGGACCUCUCCUUAAUGGGAGCUAGCGGAUGAAGUGAUGCAACACUGGAGCCGCUGGGAACUAAUUUGUAUGCGAAAGUAUAUUGAUUAGUUUUGGAGUACUCGUGGUCG
# In short: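 Fitness was computed with DiMSum as the error-weighted combination of replicate fold changes, kanamycin versus none, each normalised to wild type. The library randomised all eight intron nucleotides of the P1ex region, with the intron placed in the knt kanamycin-resistance gene on pET-22b(+) in E. coli BL21(DE3). Six replicate transformations were grown overnight at 37°C or 30°C on LB agar with or without 25 μg/mL kanamycin, plus 100 μg/mL carbenicillin, 50 μM IPTG and 0.2% rhamnose. Pooled colonies were amplicon-sequenced on an Illumina HiSeq 2500.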
Sequence,self-splicing fitness (ln) (30 °C),self-splicing fitness (ln) (37 °C)
GUAUAGCAAUAUUACGCACA,-1.11 ± 0.13,0.279 ± 0.16
GUAUAGCAAUAUUACGCAGA,-2.74 ± 0.32,-2.71 ± 0.34
GUAUAGCAAUAUUACGCCGA,-2.97 ± 0.41,-0.946 ± 0.36
GUAUAGCAAUAUUACGGAAC,-3.32 ± 0.15,-1.77 ± 0.13
GUAUAGCAAUAUUACGGCAC,-0.331 ± 0.3,
GUAUAGCAAUAUUACGGGAA,,-2.54 ± 0.4
GUAUAGCAAUAUUACGGUGU,-3.29 ± 0.15,-1.38 ± 0.11
GUAUAGCAAUAUUACGUGAA,-3.69 ± 0.25,-1.67 ± 0.17
GUAUAGCAAUAUUACGUGCU,-2.77 ± 0.16,-1.91 ± 0.22
GUAUAGCAAUAUUACGUGUC,-4.58 ± 0.39,-1.42 ± 0.14
GUAUAGCAAUAUUACGUGUG,-3.28 ± 0.14,-2 ± 0.13
GUAUAGCAAUAUUACGUUUU,-1.97 ± 0.2,-2.37 ± 0.28
GUCAAGCAAUAUUACGAAGG,-4.64 ± 0.2,-3.95 ± 0.36
GUCAAGCAAUAUUACGAAGU,-2.51 ± 0.092,-1.16 ± 0.1
GUCAAGCAAUAUUACGACCU,-3.31 ± 0.41,-0.756 ± 0.46
GUCAAGCAAUAUUACGAGUU,-3.15 ± 0.15,-0.638 ± 0.093
GUCAAGCAAUAUUACGAUUC,-1.76 ± 0.17,0.0525 ± 0.15
GUCAAGCAAUAUUACGCAAC,-4.34 ± 0.26,-2.36 ± 0.34
GUCAAGCAAUAUUACGCCCU,-0.585 ± 0.16,0.51 ± 0.15
GUCAAGCAAUAUUACGCCGC,-2.83 ± 0.28,-2.35 ± 0.46
GUCAAGCAAUAUUACGCGCG,-2 ± 0.13,-1.32 ± 0.15
GUCAAGCAAUAUUACGCGGG,-4.2 ± 0.2,-3.33 ± 0.24

Sequence,self-splicing fitness (ln) (30 °C),self-splicing fitness (ln) (37 °C)
GUCAAGCAAUAUUACGGCCC,-0.498 ± 0.33,
GUCAAGCAAUAUUACGGGAU,-5.19 ± 0.27,-2.96 ± 0.21
GUCAAGCAAUAUUACGGGCG,-3.08 ± 0.17,-0.583 ± 0.13
GUCAAGCAAUAUUACGGGGA,,-2.77 ± 0.44
GUCAAGCAAUAUUACGGUAC,-3.07 ± 0.15,-0.924 ± 0.11
GUCAAGCAAUAUUACGGUGA,-2.82 ± 0.21,-2.22 ± 0.21
GUCAAGCAAUAUUACGUAAG,-2.15 ± 0.073,-1.57 ± 0.11
GUCAAGCAAUAUUACGUAGG,-3.17 ± 0.14,-2.28 ± 0.15
GUCAAGCAAUAUUACGUUCG,-2.63 ± 0.12,-2.1 ± 0.15
GUCCAGCAAUAUUACGACAA,-1.57 ± 0.14,-0.902 ± 0.11
GUCCAGCAAUAUUACGACAC,1.02 ± 0.18,0.572 ± 0.24
GUCCAGCAAUAUUACGACGG,-3.49 ± 0.2,-2.66 ± 0.23
GUCCAGCAAUAUUACGAGGG,-2.29 ± 0.24,-1.78 ± 0.24
GUCCAGCAAUAUUACGCACA,-1 ± 0.16,0.0214 ± 0.12
GUCCAGCAAUAUUACGCCAU,-2.78 ± 0.15,-1.48 ± 0.14
GUCCAGCAAUAUUACGCCGG,-2.64 ± 0.17,-2.69 ± 0.31
GUCCAGCAAUAUUACGCCUC,-0.866 ± 0.12,0.705 ± 0.15
GUCCAGCAAUAUUACGCUCG,-0.909 ± 0.15,-1.3 ± 0.22
GUCCAGCAAUAUUACGGAAG,-0.697 ± 0.079,0.124 ± 0.084
GUCCAGCAAUAUUACGUCCC,-0.702 ± 0.12,0.424 ± 0.12
GUCCAGCAAUAUUACGUCGA,-0.796 ± 0.2,-0.589 ± 0.19
